Measurements taken from the RNAGym collection of RNA variant scans (doi:10.7554/elife.80360).

B1: HDV Ribozyme (parent)
chain: GGCCGGCAUGGUCCCAGCCUCCUCGCUGGCGCCGGCUGGGCAACAUUCCGAGGGGACCGUCCCCUCGGUAAUGGCGAAUGGGACCCA

Variants of: B1
Experiment: self-cleavage, relative activity (ratio to wild type); higher = more cleavage; co-transcriptional

| Variant | self-cleavage |
| --- | --- |
| G1U G68C | 0.431 |
| G2A A8G | 0.0773 |
| G2A G25C | 0.0744 |
| G2A G25A | 0.0346 |
| G2A G25U | 0.161 |
| G2A A83G | 0.122 |
| G2A A83C | 0.0583 |
| G1U U20G | 0.285 |
| G1U U20A | 0.289 |
| G2A A77C | 0.0437 |
| G2A A77U | 0.0631 |
| G2A A77G | 0.141 |
| G2A A51C | 0.203 |
| G2A A51U | 0.155 |
| G2A G52U | 0.201 |
| G1U U12A | 0.434 |
| G1U U12C | 0.499 |
| G1U U12G | 0.369 |
| G2A G6U | 0.0683 |
| G2A G6C | 0 |
| G1U U72A | 0.466 |
| G1U U72C | 0.237 |
| G2A C64G | 0.0923 |
| G1U G81C | 0.326 |

| Variant | self-cleavage |
| --- | --- |
| G1U G81U | 0.41 |
| G2A G17A | 0.0604 |
| G2A G17C | 0 |
| G2A C14G | 0.0773 |
| G2A C14U | 0.169 |
| G1U G52U | 0.372 |
| G1U G52C | 0.332 |
| G1U G52A | 0.356 |
| G2A C62A | 0.137 |
| G2A C62G | 0.086 |
| G2A A45G | 0.0779 |
| G2A A45U | 0.111 |
| G2A A45C | 0.0723 |
| G1U G54U | 0.358 |
| G2A G31U | 0.0205 |
| G2A G31A | 0.0729 |
| G1U G38C | 0.369 |
| G2A U9G | 0.192 |
| G2A U9C | 0.113 |
| G2A G40U | 0.0799 |
| G2A G40C | 0 |
| G2A G40A | 0.136 |
| G2A A87G | 0.145 |
| G2A A87C | 0.273 |

| Variant | self-cleavage |
| --- | --- |
| G2A A87U | 0.237 |
| G2A C13U | 0.058 |
| G2A C58G | 0.151 |
| G2A C4U | 0.163 |
| G2A C3U | 0.567 |
| G2A C3A | 0.0478 |
| G2A G5C | 0.0419 |
| G2A C33U | 0.035 |
| G2A C49A | 0.122 |
| G2A C49G | 0.135 |
| G1U G67A | 0.506 |
| G2A G80U | 0.0227 |
| G2A C15A | 0.0382 |
| G2A C15U | 0.113 |
| G2A C44A | 0.0875 |
| G2A C44G | 0.0185 |
| G1U U46C | 0.277 |
| G2A G29C | 0.0292 |
| G2A G29U | 0.0205 |
| G2A A42U | 0.0804 |
| G2A A42C | 0.0432 |
| G2A A42G | 0.0302 |
| G2A C57A | 0.258 |
| G2A C57G | 0.158 |

| Variant | self-cleavage |
| --- | --- |
| G2A G50U | 0.0779 |
| G2A G50C | 0.205 |
| G2A G82C | 0.0639 |
| G1U G76U | 0.359 |
| G1U G76C | 0.277 |
| G2A A71C | 0.13 |
| G2A A71G | 0.241 |
| G2A A56G | 0.242 |
| G2A A43U | 0.0203 |
| G2A C61U | 0.149 |
| G2A C61G | 0.102 |
| G2A C61A | 0.351 |
| G2A G10U | 0.0837 |
| G2A G10C | 0.105 |
| G2A G73C | 0.0608 |
| G2A C21A | 0.0158 |
| G2A C21U | 0.0161 |
| G2A C19G | 0 |
| G2A | 0.2 |
| G2A A78U | 0.0674 |
| G1U G80U | 0.479 |
| G1U G39U | 0.337 |
| G1U G39C | 0.397 |
| G2A G67A | 0.11 |

| Variant | self-cleavage |
| --- | --- |
| G1U U60A | 0.343 |
| G2A G54U | 0.127 |
| G2A G54C | 0.296 |
| G2A G54A | 0.194 |
| G1U U9A | 0.389 |
| G1U U9C | 0.554 |
| G1U U9G | 0.399 |
| G2A G38A | 0.0314 |
| G2A G38C | 0.07 |
| G2A C22U | 0.0183 |
| G2A C22A | 0.0205 |
| G1U G55A | 0.208 |
| G1U G55U | 0.455 |
| G2A G76A | 0.0391 |
| G2A G76C | 0.225 |
| G2A C32G | 0.0441 |
| G2A C32A | 0.0507 |
| G2A G53U | 0.145 |
| G2A G59U | 0.19 |
| G2A G59C | 0.244 |
| G2A G39C | 0.0712 |
| G2A G39U | 0.0305 |
| G2A C18U | 0.0239 |
| G2A C18A | 0.0236 |

| Variant | self-cleavage |
| --- | --- |
| G2A C18G | 0.0817 |
| G2A C75A | 0.0542 |
| G2A C75G | 0.0615 |
| G2A G81A | 0.0692 |
| G2A G81U | 0.0346 |
| G2A G81C | 0.115 |
| G2A C26U | 0.138 |
| G2A G74A | 0.0457 |
| G1U G53A | 0.32 |
| G1U G53C | 0.283 |
| G1U G53U | 0.355 |
| G1U U27G | 0.522 |
| G2A G11C | 0.0519 |
| G2A G34U | 0.0449 |
| G1U U23G | 0.277 |
| G1U U23C | 0.665 |
| G1U U23A | 0.203 |
| G2A C66A | 0.194 |
| G2A C66G | 0.213 |
| G1U U69C | 0.259 |
| G1U U69A | 0.332 |
| G1U G74A | 0.288 |
| G1U G74U | 0.358 |
| G1U G74C | 0.262 |

| Variant | self-cleavage |
| --- | --- |
| G2A C24U | 0.101 |
| G2A G28A | 0.0107 |
| G1U U47G | 0.405 |
| G2A C41G | 0.0645 |
| G2A C41U | 0.198 |
| G1U U65G | 0.17 |
| G1U U65A | 0.191 |
| G2A G68A | 0.185 |
| G2A G68C | 0.177 |
| G2A G68U | 0.0645 |
| G2A A16G | 0.237 |
| G2A A16C | 0.0733 |
| G1U G59C | 0.277 |
| G1U G59U | 0.451 |
| G1U G59A | 0.442 |
| G2A U12C | 0.0627 |
| G2A G35U | 0.0602 |
| G2A G35A | 0.0569 |
| G2A G55A | 0.191 |
| G2A G55C | 0.194 |
| G2A G55U | 0.271 |
| G1U G50A | 0.475 |
| G1U G50C | 0.203 |
